From US20170240637A1 (Memorial Sloan Kettering, published 2017) come the findings set out here.

Residue numbers refer to the chain shown, from its start.

For experiment [1], the target named is 2Ig-B7H3-mFc mutant D128A (human) (UniProt Q5ZPR3). Put plainly: SPR, 400 nM antibody over immobilized D128A mutant. In general terms: In SPR one partner is held on a chip, and binding of the other changes the refractive index at the surface.
The target in experiment [2] is T1, 2Ig-B7H3-mFc mutant R127A (human, UniProt Q5ZPR3-2 29-248, limits assumed).
T1 construct: not shown: mouse Fc
T1 sequence (looked up): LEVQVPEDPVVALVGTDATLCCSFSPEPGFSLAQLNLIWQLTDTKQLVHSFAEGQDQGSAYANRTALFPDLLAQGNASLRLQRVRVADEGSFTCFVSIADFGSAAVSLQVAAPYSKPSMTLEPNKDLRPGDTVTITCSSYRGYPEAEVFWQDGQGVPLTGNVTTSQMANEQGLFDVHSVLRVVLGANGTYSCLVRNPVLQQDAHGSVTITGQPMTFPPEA
As to the kind of experiment: SPR, 400 nM antibody over immobilized R127A mutant.

Experiment [3] has as its target T2, wild type 2Ig-B7H3-mFc (human, UniProt Q5ZPR3-2 29-248, limits assumed).
T2 construct: Q5ZPR3 canonical entry is the 4Ig isoform; the 2Ig form is its shorter isoform; also called 2Ig-B7H3-Fc; WT 2Ig-B7H3-Fc; not shown: mouse Fc
T2 sequence (looked up): T1 sequence (looked up) with A99R
Put plainly: SPR, 400 nM antibody over immobilized WT 2Ig-B7H3-mFc.

Experiment [4] concerns the target T3, 4Ig-B7H3 (human, UniProt Q5ZPR3 27-461, limits assumed).
T3 construct: also called 4Ig-B73H3
T3 sequence (looked up): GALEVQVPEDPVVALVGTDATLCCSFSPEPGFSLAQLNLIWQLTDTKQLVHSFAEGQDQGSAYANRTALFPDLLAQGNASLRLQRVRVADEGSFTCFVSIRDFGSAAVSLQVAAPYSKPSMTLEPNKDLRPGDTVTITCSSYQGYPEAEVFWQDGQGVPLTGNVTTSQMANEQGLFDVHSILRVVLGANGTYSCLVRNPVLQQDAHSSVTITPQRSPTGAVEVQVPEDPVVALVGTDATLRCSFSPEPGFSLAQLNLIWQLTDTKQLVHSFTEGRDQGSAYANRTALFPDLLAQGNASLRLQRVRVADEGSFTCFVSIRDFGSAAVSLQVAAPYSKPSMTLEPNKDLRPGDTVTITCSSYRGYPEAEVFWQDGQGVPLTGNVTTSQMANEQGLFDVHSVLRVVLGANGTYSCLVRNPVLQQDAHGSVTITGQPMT
Put plainly: SPR.

Experiment [5] deals with T4, 2Ig-B7H3 without Fc fusion (human, UniProt Q5ZPR3-2 29-245, limits assumed).
T4 construct: also called 2IgB7H3 (R&D)
T4 sequence (looked up): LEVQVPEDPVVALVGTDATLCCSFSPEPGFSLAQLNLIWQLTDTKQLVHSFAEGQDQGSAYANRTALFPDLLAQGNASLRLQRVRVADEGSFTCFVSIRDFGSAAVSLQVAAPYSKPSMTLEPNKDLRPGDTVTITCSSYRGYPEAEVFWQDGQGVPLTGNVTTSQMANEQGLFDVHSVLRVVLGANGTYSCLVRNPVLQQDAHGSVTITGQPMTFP
Put plainly: SPR.

Experiment [6] concerns the target B7H3 on B7H3-positive human tumor cells (M14, LAN-1, IMR-32, HeLa) (human) (UniProt Q5ZPR3). Put plainly: cell-based or functional assay.
In experiment [7] the target is T5, 4Ig-B7H3 fused to mouse Fc (B7H3-mFc) (human, UniProt Q5ZPR3 29-466, limits assumed, biotinylated on primary amines (NHS-biotin) in the experiment of paragraph 316).
T5 construct: Expressed in DG44 CHO cells; also called 4Ig-B7H3-Fc; 4Ig-B7H3-mFc; not shown: mouse Fc
T5 sequence (looked up): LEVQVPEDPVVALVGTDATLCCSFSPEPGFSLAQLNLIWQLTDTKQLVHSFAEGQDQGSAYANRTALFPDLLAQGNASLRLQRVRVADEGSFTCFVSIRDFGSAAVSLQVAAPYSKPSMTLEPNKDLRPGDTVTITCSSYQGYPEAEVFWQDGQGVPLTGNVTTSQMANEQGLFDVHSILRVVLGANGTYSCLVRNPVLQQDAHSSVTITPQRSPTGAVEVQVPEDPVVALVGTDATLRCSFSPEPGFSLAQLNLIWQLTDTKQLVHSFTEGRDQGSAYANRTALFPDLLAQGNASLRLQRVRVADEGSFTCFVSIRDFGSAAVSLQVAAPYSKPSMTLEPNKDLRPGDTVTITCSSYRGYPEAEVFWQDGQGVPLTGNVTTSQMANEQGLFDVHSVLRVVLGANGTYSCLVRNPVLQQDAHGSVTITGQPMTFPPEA
Put plainly: SPR, IgG on 4Ig-B7H3-Fc. Here is the method:
(§1) In brief, B7H3 antigen (either 2Ig-B7H3, 4Ig-B7H3, 2Ig-B7H3-mFc, 4Ig-B7H3-mFc), was directly immobilized onto the CM5 sensor chip via […]. Reference surface was set up for nonspecific binding and refractive index changes. […] The association and dissociation phase data were fitted simultaneously to a 1:1 model by using BIAevaluation 3.2. All the experiments were done at 25° C.

For experiment [8], the target named is T2, wild type 2Ig-B7H3-mFc. As to the kind of experiment: SPR, IgG on 2Ig-B7H3-mFc. Here is the method:
as §1

Experiment [9] addresses T4, 2Ig-B7H3 without Fc fusion. As to the kind of experiment: SPR, IgG on 2Ig-B7-H3 without Fc fusion. How it is done: as §1
Experiment [10] addresses T3, 4Ig-B7H3. As to the kind of experiment: SPR, IgG on 4Ig-B7-H3 without Fc fusion. How it is done: as §1
The target in experiment [11] is B7H3 on B7H3-positive human tumor cells (M14, LAN-1, IMR-32, HeLa) (human) (UniProt Q5ZPR3). Put plainly: cell-binding assay of 131I-labelled antibody on LAN-1 cells.
Experiment [12] deals with T1, 2Ig-B7H3-mFc mutant R127A. As to the kind of experiment: SPR, IgG over immobilised 2Ig-B7H3-mFc R127A (left panel); antibody concentration not shown.
The target in experiment [13] is T1, 2Ig-B7H3-mFc mutant R127A. As to the kind of experiment: SPR, IgG over immobilised 2Ig-B7H3-mFc R127A (right panel); antibody concentration not shown.
In experiment [14] the target is T3, 4Ig-B7H3. As to the kind of experiment: SPR (Biacore T-100), 4Ig-B7H3 on CM5 chip, scFv injected. How it is done:
(§2) In brief, B7H3 antigen (either 2Ig-B7H3, 4Ig-B7H3, 2Ig-B7H3-mFc, 4Ig-B7H3-mFc), was directly immobilized onto the CM5 sensor chip via […]. Reference surface was set up for nonspecific binding and refractive index changes. For analysis of the kinetics of interactions, varying concentrations of scFvs were injected at flow rate of 30 μl/min using running buffer containing 10 mM HEPES, 150 mM NaCl, 3 mM EDTA, and 0.05% Surfactant P-20 (pH 7.4). The association and dissociation phase data were fitted simultaneously to a 1:1 model by using BIAevaluation 3.2. All the experiments were done at 25° C.

Experiment [15] addresses T4, 2Ig-B7H3 without Fc fusion. As to the kind of experiment: ELISA, right panel '2IgB7H3', scFv serially diluted 0.01-10 µg/ml. How it is done:
B7H3-mFc (100 ng/well) or 2IgB7H3 (R&D, Minneapolis, Minn.) (25 ng/well) were coated on polyvinyl microtiter plates in PBS overnight. Plates were then blocked with 0.5% BSA in PBS at 150 μl per well for 1 h at room temperature. Antibodies were added in triplicates with serial dilution in 0.5% BSA. Following incubation for 1 h at room temperature and washing with PBS, HRP-mouse anti-human Fc antibody, HRP-streptavidin, or HRP-mouse anti-Flag antibody was added. After incubation for 1 h at room temperature and further washing, the color was developed and quantified using an ELISA plate reader at 490 nm.

Experiment [16] concerns the target T2, wild type 2Ig-B7H3-mFc. Put plainly: SPR, antigen on CM5 chip. How it is done: as §2

As for “anti-B7H3 MAb MIH42 (Thermo Scientific Pierce) (antibody)”, the Relative binding (to WT) was found to be 68.8% in experiment [1] and 76.1% in experiment [2]. The same molecule displayed a Max RU with wild type 2Ig-B7H3-mFc [3] of 2530 RU.

B1: hu8H9 3.1 IgG1 (antibody, V domains shown)
VH: QVQLVQSGAEVVKPGASVKLSCKTSGYTFTNYDINWVRQRPGQGLEWIGWIFPGDDSTQYNEKFKGKATLTTDTSTSTAYMELSSLRSEDTAVYFCARQTTGTWFAYWGQGTLVTVSS
VL: EIVMTQSPATLSVSPGERVTLSCRASQSISDYLYWYQQKSHESPRLLIKYASQSISGIPARFSGSGSGSEFTLTINSVEPEDVGVYYCQNGHSFPLTFGQGTKLELKR
notes: also called clone 3.1
On to B1, for which the “fold enhancement in affinity against parental hu8H9 H3L3” value (in the experiment with 4Ig-B7H3 [4]; in experiment [5]) was 2.5 to 9 fold in each case. In addition, the ADCC EC50 (µg/ml), 51Cr release, LAN-1 targets, human PBMC effectors in experiment [6] is 0.31 µg/mL. In experiment [6], the Fold change EC50 relative to ch8H9 (ADCC) amounted to 5 fold. Besides, the Kd in experiment [7] was 2 nM; with wild type 2Ig-B7H3-mFc [8], 6 nM; in experiment [9], 5 nM; in the experiment with 4Ig-B7H3 [10] it was 13 nM. The koff was found to be 0.000114 s⁻¹ in experiment [7], 0.000232 s⁻¹ with wild type 2Ig-B7H3-mFc [8], 0.000171 s⁻¹ in experiment [9] and 0.000298 s⁻¹ with 4Ig-B7H3 [10]. For the same molecule, the kon came out at 55600 M⁻¹ s⁻¹ in experiment [7], 38700 M⁻¹ s⁻¹ with wild type 2Ig-B7H3-mFc [8], 33900 M⁻¹ s⁻¹ in experiment [9] and 23400 M⁻¹ s⁻¹ with 4Ig-B7H3 [10]. The molecule also yielded an in vitro immunoreactivity in [11] of 54%. Besides, the binding result in experiment [12] is listed as “no binding”.

B2: ch8H9 6.1 IgG (ch8H9 + 6 affinity maturation mutations) (antibody, V domains shown)
VH: B1 VH with V5Q, V11L, T76S, E82Q, S85R, R87T, T91S, S118A
VL: B1 VL with E1D, S14T, E17D, A60S, E70D, T74S, Q100A
B2: the “fold enhancement in binding relative to ch8H9” value with 4Ig-B7H3 [4] is 2 to 4 fold. Further, in experiment [5], the “fold enhancement in binding relative to ch8H9” value lay in the range of 2 to 4 fold. Besides, in [6], the ADCC EC50 (µg/ml), 51Cr release, LAN-1 targets, human PBMC effectors turned out to be 0.1 µg/mL and the Fold change EC50 relative to ch8H9 (ADCC) came out at 14 fold. In [9], binding was characterised by a dissociation constant (Kd) of 0.62 nM, the koff came to 4.25e-05 s⁻¹ and the kon is 68900 M⁻¹ s⁻¹. In the experiment with 4Ig-B7H3 [10], this molecule showed a Kd of 3.7 nM, a koff of 0.000123 s⁻¹ and a kon of 33500 M⁻¹ s⁻¹. Besides, in experiment [11], the in vitro immunoreactivity was 73%.

B3: hu8H9 5.1 IgG1 (antibody, V domains shown)
VH: B1 VH with L20V, K67R, A68V, L70M, A79V
VL: B1 VL with E42Q, S43A, N76S, V78L, E79Q, V83F
notes: also called clone 5.1
Regarding B3, in experiment [6], the ADCC EC50 (µg/ml), 51Cr release, LAN-1 targets, human PBMC effectors was determined as 0.16 µg/mL and the Fold change EC50 relative to ch8H9 (ADCC) is 9 fold. In experiment [7], this molecule registered a Kd of 1.3 nM, a koff of 7.08e-05 s⁻¹ and a kon of 59200 M⁻¹ s⁻¹. In the experiment with wild type 2Ig-B7H3-mFc [8], this molecule had a Kd of 0.82 nM, a koff of 5.59e-05 s⁻¹ and a kon of 67800 M⁻¹ s⁻¹. Moreover, the binding result in [13] is reported as “no binding”.

B4: hu8H9 clone S3.3 scFv (scFv)
scFv: QVQLVQSGAEVVKPGASVKLSCKTSGYTFTNYDINWVRQRPGQGLEWIGWIFPGDGSTQYNEKFKGKATLTTDTSTSTAYMELSSLRSEDTAVYFCARQTTATWFAYWGQGTLVTVSSGGGGSGGGGSGGGGSEIVMTQSPATLSVSPGERVTLSCRASQSISDYLYWYQQKSHESPRLLIKYASQSISGIPARFSGSGSGSEFTLTINSVEPEDVGVYYCQNGHSFPLTFGQGTKLELKR
notes: also called Sort3; not shown: FLAG and His tags
In the experiment with 4Ig-B7H3 [14], B4 registered a Kd of 9.85 nM, a koff of 0.000244 s⁻¹ and a kon of 24800 M⁻¹ s⁻¹. Moreover, the “EC50 (read off the curve)” value in experiment [15] was approximately 0.2 µg/mL.

B5: murine 8H9 (m8H9) IgG1 monoclonal antibody (antibody, V domains shown)
VH: QVQLQQSGAELVKPGASVKLSCKASGYTFTNYDINWVRQRPEQGLEWIGWIFPGDGSTQYNEKFKGKATLTTDTSSSTAYMQLSRLTSEDSAVYFCARQTTATWFAYWGQGTLVTVSA
VL: DIVMTQSPATLSVTPGDRVSLSCRASQSISDYLHWYQQKSHESPRLLIKYASQSISGIPSRFSGSGSGSDFTLSINSVEPEDVGVYYCQNGHSFPLTFGAGTKLELK
modifications: 131I-labelled in the LAN-1 immunoreactivity assay; the label is not carried by the letters.
notes: also called MAb 8H9
In the experiment with wild type 2Ig-B7H3-mFc [16], B5 yielded a Kd of 0.28 nM, a koff of 1.03e-05 s⁻¹ and a kon of 36700 M⁻¹ s⁻¹. Moreover, in [9], the dissociation constant Kd was 0.81 nM, the koff is 2.24e-05 s⁻¹ and the kon was determined as 27800 M⁻¹ s⁻¹. In the experiment with 4Ig-B7H3 [10], the Kd is 8.9 nM, the koff stood at 0.000165 s⁻¹ and the kon turned out to be 18500 M⁻¹ s⁻¹. The in vitro immunoreactivity in experiment [11] was found to be 69%.

By Kd is commonly meant the constant that tells how readily two partners part at equilibrium. Broadly, the koff is a measure of how fast the partners let go of each other. The kon is the rate constant with which the complex forms. Low values mean slower complex formation, high ones faster complex formation. As usually defined, the EC50 (read off the curve) is the concentration at which the effect is half-maximal.
